Experimental data reported in patent US20260265403A1 (TJ BIOPHARMA SHANGHAI, published 2026).
Residue numbers refer to the chain shown, from its start. Numbers in names are those of the source.

T1: Human CD24 (human, UniProt P25063 27-59, limits assumed)
T1 chain (looked up): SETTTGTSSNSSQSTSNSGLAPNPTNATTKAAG

T2: human CD24 on cells (human, UniProt P25063 27-59)
T2 chain (looked up): T1 chain (looked up)

B1: Antibody No 1, lead clone of 4451H (HC N35G; LC K27A, T97I) (antibody, V domains shown)
VH: QVQLVQSGAEVKKPGASVKVSCKASGYDFTGYHMGWVRQAPGQGLEWMGEINPITSDKTFNQKFKSRVTMTRDTSISTAYMELSRLRSDDTAVYYCARRDYGTSLDYWGQGTTVTVSS
VL: DIQLTQSPSFLSASVGDRVTITCRASASISKYLAWYQQKPGKAPKLLIYAGSTLHSGIPSRFRGSGSGTEFTLTISSLQPEDFATYYCQQHNEYPIIFGQGTKLEIK
B2: 90-D11B6, IgG1, Kappa (antibody, V domains shown)
VH: EVQLQQSGPELVKPGASVRISCKASGYSFTGYYMNWVKQSPEKNLEWIGEINPITGGSTYNQKFVAKATLTVDRSSSTAYMQLKSLTSEDSAVYYCTRRDYDTSLDYWGQGTTLTVSS
VL: DVQITQSPSYLAASPGETITINCRASKSISKYLAWYQEKPGKTIKLLIYAGSTLQSGIPSRFSGSGYGTDFTLTISSLEPEDFAMYYCQQHNEYPLTFGAGTKLELK
B3: 80-F10A6, IgG4, Kappa (antibody, V domains shown)
VH: EVQLQQSGPVLVNPGASVKISCKASGYSFTGYYMNWVKQSPEKSLEWIGEVNPITGDTTYSQNFKAKTTLTVDRSSSTAYMQLKSLTSEDSAVYYCTRRDYGTSLDYWGQGTTLTVSS
VL: B2 VL with N22H, K31R, T43I, I44N, K45T, Q55H, S56L, Y67S, P80L, L96I
B4: 63-B10B9, IgG4, Kappa (antibody, V domains shown)
VH: B2 VH with R19K, N44S, S58T, V65R, R98K, T115I
VL: B2 VL with S14F, S30K, I44N, K45N, A50S, Y67T
B5: 63-B10B9, IgG1, Kappa (antibody, V domains shown)
VH: B2 VH with R19K, N44S, S58T, V65R, R98K, T115I
VL: B2 VL with S14F, S30K, I44N, K45N, A50S, Y67T
B6: 74-H4C6 (4451), IgG1, Kappa (antibody, V domains shown)
VH: EVQLQQSGPELVKPGASVKISCKASGYDFTGYHMNWVKQSPEKSLEWIGEINPITSDKTFNQKFKSKATLTVDRSSSTAYMYLKSLTSEDSAVYYCARRDYGTSLDYWGQGTTLTVSS
VL: DVQITQSPSYLAASPGETITIYCRASKSISKYLAWYQEKPEKTNRLLIYAGSTLHSGIPSRFRGSGSGKDFTLTVSGLEPEDFAMYYCQQHNEYPITFGAGTKLELK
B7: 66-D1B10, IgG4, Kappa (antibody, V domains shown)
VH: EVRLEESGGGFVQPGGSMKLSCVASGLTFPNHWMNWVRQSPERGLAWVAQIQLKSDNYATRYVESVKGRFTISRDDSESTVYLQMNNLRAEDTGIYYCTTGTDYWGQGTTLTVSS
VL: not shown
B8: 66-D1B10, IgG1, Kappa (antibody, V domains shown)
VH: B7 VH
VL: not shown
B9: 76-F8C6, IgG1, Kappa (antibody, V domains shown)
VH: B7 VH with R3K, F11L, L27F, P30T, H32S, A46D, E78K, S79N, T80S, G106S
VL: not shown
B10: 65-F3C7, IgG4, Kappa (antibody, V domains shown)
VH: B7 VH with P41L, E78K, A90P
VL: not shown
B11: 65-F3C7, IgG1, Kappa (antibody, V domains shown)
VH: B7 VH with P41L, E78K, A90P
VL: not shown
B12: 75-H8B9, IgG1, Kappa (antibody, V domains shown)
VH: EVNLEESGGGLVQPGGSRQLSCVASGLTFSKHWMNWVRQSPDKGLEWVAQIQLKSDNYAIRYVDSVKGRFTISRDDSENTVYLQMNNLRAEDTGIYYCTTGTDYWGQGTTLTVSS
VL: not shown
B13: 70-F4E5, IgG4, Kappa (antibody, V domains shown)
VH: B12 VH
VL: not shown
B14: 70-F4E5, IgG1, Kappa (antibody, V domains shown)
VH: B12 VH
VL: not shown
B15: 59-G9D7, IgG1, Kappa (antibody, V domains shown)
VH: QVQLQQPGADLVKPGASVKLSCKASGYTVTTYWMHWVRQRPGRGLEWIGRIDPNSGETKYSEKFKNKATLTVDRPSSTAYMQLSSLTFEDSAVYFCAIYYYLNNFLFDYWGQGTTLTVSS
VL: ENVLTQSPAIMSASPGEKVTMTCRASSSVSSSYLHWYQKKSGASPKLWIYSTSNLASGVPARFSGSGSGTSYSLTISSVEAEDAATYYCQQYSGYPLTFGAGTKLELK
B16: 62-F7E9, IgG1, Kappa (antibody, V domains shown)
VH: QVQLQQPGAELVKPGASVKLSCKASGYTSTSYWLHWVKQRPGRGLEWIGRIDPNSGETKFNEKFKSQATLTVDKPSSTAYMQLNSLTSEDSAVYYCALYYYGSILFDYWGQGTTLTVSS
VL: B15 VL with A25T, S28I, V29I, S32G, Y33F, K39Q, Y95H
B17: 69-D5G10, IgG4, Kappa (antibody, V domains shown)
VH: EVKLEESGGGLVQPGGSMKLSCVVSGLTFSNHWMNWVRQSPEKGLEWVAQIQLKSDNYATRFAESVKGRFTISRDDSKSDVYLQMNNLRTEDTGIYYCTTGTDYWGQGTTLTVSS
VL: not shown
B18: 69-D5G10, IgG1, Kappa (antibody, V domains shown)
VH: B17 VH
VL: not shown
B19: 63-C5A5, IgG4, Kappa (antibody, V domains shown)
VH: EVNLEESGGGLVQPGGSMEFSCVASGLTFSDHWMNWVRQSPEKGLEWVAQIQLKSDNYAIRYVESVKGRFSISRDDSKSSVYLQMNNLRAEDSGIYYCTTGTDYWGQGTTLTVSS
VL: not shown
B20: 63-C5A5, IgG1, Kappa (antibody, V domains shown)
VH: B19 VH
VL: not shown
B21: 45-H1E4, IgG4, Kappa (antibody, V domains shown)
VH: QIQLVQSGPELKKPGETVKISCKASGYTFTTYGMSWMKQAPGKGLKWMGWINTYSGVPAYADDFKGRFAFSLDTSASTAYLQINNLKNEDTATYFCARSGYPWSPHSYSTDYWGQGISVTVSS
VL: DVLLTQTPLSLPVSLGDQASISCKSSQSIVHSNGNTYLEWYLQKPGQSPKRLIYKVSNRFSGVPDRFSGSGSGTDFTLKISRVEAEDLGVYYCFQGSHVPWTFGGGTKLEIK
B22: 45-H1E4, IgG1, Kappa (antibody, V domains shown)
VH: B21 VH
VL: B21 VL

Molecular target: T1, Human CD24
Assay: SPR affinity ranking, 1:1 binding, analyte conc. 19.71 nM

| Kd | koff | kon | Binder |
| --- | --- | --- | --- |
| 10.5 nM | 0.0132 s⁻¹ | 1.26e+06 M⁻¹ s⁻¹ | B1 |

Molecular target: T2, human CD24 on cells
Assay: cell-based or functional assay

| EC50 of Phagocytosis assay, IgG1, Kappa; HEK293-CD24 | EC50 of Phagocytosis assay, IgG1, Kappa; MCF-7 | EC50 of Phagocytosis assay, IgG1, Kappa; NALM6 | EC50 of Phagocytosis assay, IgG1, Kappa; OVCAR3 | EC50 of Phagocytosis assay, IgG4, Kappa; HEK293-CD24 | EC50 of Phagocytosis assay, IgG4, Kappa; MCF-7 | EC50 of Phagocytosis assay, IgG4, Kappa; NALM6 | EC50 of Phagocytosis assay, IgG4, Kappa; OVCAR3 | Binder |
| --- | --- | --- | --- | --- | --- | --- | --- | --- |
| 1.31 µg/mL | 1 µg/mL | 1.19 µg/mL | 0.59 µg/mL |  |  |  |  | B2 |
|  |  |  |  | 0.86 µg/mL | 2.4 µg/mL | 1.05 µg/mL | 0.37 µg/mL | B3 |
|  |  |  |  | 1.14 µg/mL | 17.1 µg/mL | 6.16 µg/mL | 9.85 µg/mL | B4 |
| 7.02 µg/mL | 1.06 µg/mL | 1.91 µg/mL | 0.56 µg/mL |  |  |  |  | B5 |
| 0.05 µg/mL | 0.28 µg/mL | 0.19 µg/mL | 0.1 µg/mL |  |  |  |  | B6 |
|  |  |  |  | 3.09 µg/mL | 2.26 µg/mL | 6.28 µg/mL | 5.77 µg/mL | B7 |
| 7.46 µg/mL | 0.84 µg/mL | 2.48 µg/mL | 0.73 µg/mL |  |  |  |  | B8 |
| 0.09 µg/mL | 0.47 µg/mL | 0.42 µg/mL | 0.17 µg/mL |  |  |  |  | B9 |
|  |  |  |  | 0.09 µg/mL | 2.25 µg/mL | 6.01 µg/mL | 5.74 µg/mL | B10 |
| 0.75 µg/mL | 0.4 µg/mL | 2.01 µg/mL | 0.23 µg/mL |  |  |  |  | B11 |
| 0.08 µg/mL | 0.44 µg/mL | 1.16 µg/mL | 0.14 µg/mL |  |  |  |  | B12 |
|  |  |  |  | 0.21 µg/mL | 0.84 µg/mL | 0.63 µg/mL | 5.61 µg/mL | B13 |
| 0.04 µg/mL | 0.7 µg/mL | 0.61 µg/mL | 0.15 µg/mL |  |  |  |  | B14 |
| 4.76 µg/mL | 2.05 µg/mL | 7.9 µg/mL | 0.97 µg/mL |  |  |  |  | B15 |
| 5.15 µg/mL | 2.08 µg/mL | 8.62 µg/mL | 1.63 µg/mL |  |  |  |  | B16 |
|  |  |  |  | 0.37 µg/mL | 1.02 µg/mL | 0.55 µg/mL | 0.51 µg/mL | B17 |
| 0.22 µg/mL | 0.42 µg/mL | 0.43 µg/mL | 8.44 µg/mL |  |  |  |  | B18 |
|  |  |  |  | 0.46 µg/mL | 24.7 µg/mL | 6.58 µg/mL | 1.62 µg/mL | B19 |
| 0.4 µg/mL | 0.74 µg/mL | 0.7 µg/mL | 8.48 µg/mL |  |  |  |  | B20 |
|  |  |  |  | 0.9 µg/mL | 7 µg/mL | 5.36 µg/mL | 3.35 µg/mL | B21 |
| 0.29 µg/mL | 1.02 µg/mL | 1.25 µg/mL | 0.59 µg/mL |  |  |  |  | B22 |
